Experiment [1] deals with T1, B7.1/Ig fusion protein (human, UniProt P33681 35-242, limits assumed).
T1 construct: Secreted by CHO cells; also called B7-Ig; 125I-B7.1Ig; not shown: human immunoglobulin CH2 and CH3
T1 sequence (looked up): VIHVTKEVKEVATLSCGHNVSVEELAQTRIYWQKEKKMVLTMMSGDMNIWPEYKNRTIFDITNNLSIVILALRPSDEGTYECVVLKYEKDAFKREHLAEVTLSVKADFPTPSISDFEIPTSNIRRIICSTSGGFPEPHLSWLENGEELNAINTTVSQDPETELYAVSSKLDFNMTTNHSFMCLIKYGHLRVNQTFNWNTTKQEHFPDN
Description: Scatchard analysis, binding to B7-Ig coated plates.

Experiment [2] has as its target T1, B7.1/Ig fusion protein. As to the kind of experiment: Scatchard analysis, binding to B7-Ig coated plates. This is another data set of the same source.

Read-outs that look alike come from different tables or passages of the source.

One may read the Kd as the equilibrium constant for the complex coming apart.

B1: monkey monoclonal antibody 7B6 (antibody, V domains shown)
VH: EVQLVESGGGLVQPGGSLRVSCAVSGFTFSDHYMYWFRQAPGKGPEWVGFIRNKPNGGTTEYAASVKDRFTISRDDSKSIAYLQMSSLKIEDTAVYYCTTSYISHCRGGVCYGGYFEFWGQGALVTVSS
VL: EVVMTQSPLSLPITPGEPASISCRSSQSLKHSNGDTFLSWYQQKPGQPPRLLIYKVSNRDSGVPDRFSGSGAGTDFTLKISAVEAEDVGVYFCGQGTRTPPTFGGGTKVEIK
B1: the equilibrium dissociation constant (Kd) with B7.1/Ig fusion protein [1] and in the experiment with B7.1/Ig fusion protein [2] was roughly 10.7 nM in each case.

(Values after patent EP1007090B1 (Biogen Idec Inc., dated 2009).)
